Measurements taken from the supplement of paper PMC9112550, “Optimization of the antimicrobial peptide Bac7 by deep mutational scanning” (BMC Biology, 2022).

Test system: Escherichia coli TOP10
Assay: shrunken log2 fold change of peptide-encoding DNA abundance (4.5 h post-induction vs induction); higher = less antimicrobial activity (less host growth inhibition)
Details: time post-induction: 4.5 h; library: site-saturation at positions 5, 18, 19, 20
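Note: peptides expressed intracellularly from a pBAD plasmid library in pooled LB shake-flask culture, induced with 0.3% L-arabinose, DNA abundance read by NGS, three biological replicates, DESeq2 with apeglm shrinkage.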

Sequence	shrunken log2 fold change
RRIRRRPPRLPRPRPRPCPRPRP	0.0796
RRIRPRPPRLPRPRPRPPHMPRP	0.214
RRIRCRPPRLPRPRPRPGKMPRP	-0.055
RRIRIRPPRLPRPRPRPATFPRP	-0.658
RRIRKRPPRLPRPRPRPWLCPRP	0.466
RRIRPRPPRLPRPRPRPCMRPRP	-0.239
RRIRCRPPRLPRPRPRPKHCPRP	-0.166
RRIRNRPPRLPRPRPRPTNKPRP	-0.468
RRIRNRPPRLPRPRPRPSDMPRP	-0.117
RRIRYRPPRLPRPRPRPKHNPRP	-0.68
RRIRIRPPRLPRPRPRPFYQPRP	0.234
RRIRHRPPRLPRPRPRPLIAPRP	-0.261
RRIRIRPPRLPRPRPRPAAYPRP	-0.919
RRIRLRPPRLPRPRPRPFHPPRP	-0.0146
RRIRQRPPRLPRPRPRPLTNPRP	-0.483
RRIRYRPPRLPRPRPRPDFWPRP	0.125
RRIRPRPPRLPRPRPRPMQRPRP	0.195
RRIRLRPPRLPRPRPRPHAEPRP	-0.203
RRIRPRPPRLPRPRPRPETCPRP	0.787
RRIRWRPPRLPRPRPRPQTCPRP	0.108
RRIRRRPPRLPRPRPRPWHYPRP	-0.0356
RRIRTRPPRLPRPRPRPWYHPRP	-0.464
RRIRMRPPRLPRPRPRPDRPPRP	0.107
RRIRPRPPRLPRPRPRPPWEPRP	0.0889
RRIRWRPPRLPRPRPRPGYIPRP	0.226

Sequence	shrunken log2 fold change
RRIRQRPPRLPRPRPRPDGMPRP	-0.199
RRIRWRPPRLPRPRPRPMKAPRP	0.294
RRIRLRPPRLPRPRPRPWRPPRP	0.105
RRIRARPPRLPRPRPRPQSCPRP	-0.0161
RRIRQRPPRLPRPRPRPPGEPRP	0.119
RRIRYRPPRLPRPRPRPPIPPRP	0.31
RRIRRRPPRLPRPRPRPWPTPRP	0.0393
RRIRSRPPRLPRPRPRPWKIPRP	-0.0842
RRIRQRPPRLPRPRPRPHAFPRP	-0.0738
RRIRSRPPRLPRPRPRPRSAPRP	0.392
RRIRCRPPRLPRPRPRPQAKPRP	0.31
RRIRSRPPRLPRPRPRPMDVPRP	-0.02
RRIRYRPPRLPRPRPRPESKPRP	-0.859
RRIRVRPPRLPRPRPRPQKMPRP	-0.234
RRIRFRPPRLPRPRPRPYPIPRP	-0.281
RRIRPRPPRLPRPRPRPAYHPRP	-0.129
RRIRNRPPRLPRPRPRPMVYPRP	0.0157
RRIRYRPPRLPRPRPRPIIRPRP	-0.2
RRIRTRPPRLPRPRPRPHWDPRP	-0.245
RRIRGRPPRLPRPRPRPQTVPRP	0.19
RRIRYRPPRLPRPRPRPWHKPRP	-0.377
RRIRHRPPRLPRPRPRPFIKPRP	-0.138
RRIRARPPRLPRPRPRPPSIPRP	-0.108
RRIRPRPPRLPRPRPRPFTVPRP	0.0237
RRIRGRPPRLPRPRPRPACEPRP	0.833

Sequence	shrunken log2 fold change
RRIRERPPRLPRPRPRPHGKPRP	-0.0244
RRIRKRPPRLPRPRPRPHFMPRP	-0.171
RRIRDRPPRLPRPRPRPQLKPRP	-0.0603
RRIRIRPPRLPRPRPRPLKGPRP	-0.0404
RRIRLRPPRLPRPRPRPHHLPRP	-0.24
RRIRCRPPRLPRPRPRPNKEPRP	-0.189
RRIRDRPPRLPRPRPRPCFCPRP	-0.054
RRIRVRPPRLPRPRPRPIPAPRP	0.000426
RRIRIRPPRLPRPRPRPTKIPRP	-0.158
RRIRYRPPRLPRPRPRPALGPRP	0.0458
RRIRRRPPRLPRPRPRPIHQPRP	-0.136
RRIRTRPPRLPRPRPRPREGPRP	0.41
RRIRHRPPRLPRPRPRPVNYPRP	-0.881
RRIRERPPRLPRPRPRPCITPRP	-0.395
RRIRFRPPRLPRPRPRPTFHPRP	-0.385
RRIRVRPPRLPRPRPRPSVLPRP	0.226
RRIRMRPPRLPRPRPRPCMIPRP	-0.0212
RRIRGRPPRLPRPRPRPYREPRP	0.00752
RRIRARPPRLPRPRPRPAIMPRP	0.161
RRIRARPPRLPRPRPRPKHFPRP	4.03
RRIRPRPPRLPRPRPRPEQGPRP	-0.178
RRIRCRPPRLPRPRPRPNANPRP	-0.353
RRIRERPPRLPRPRPRPRFPPRP	0.0958
RRIRPRPPRLPRPRPRPSRLPRP	-0.0839
RRIRARPPRLPRPRPRPVSRPRP	0.661

Sequence	shrunken log2 fold change
RRIRHRPPRLPRPRPRPEFNPRP	0.0664
RRIRARPPRLPRPRPRPKVTPRP	0.0237
RRIRFRPPRLPRPRPRPTYLPRP	-0.243
RRIRCRPPRLPRPRPRPETQPRP	0.0409
RRIRNRPPRLPRPRPRPGLQPRP	-0.113
RRIRRRPPRLPRPRPRPLLAPRP	0.887
RRIRCRPPRLPRPRPRPDWDPRP	-0.149
RRIRMRPPRLPRPRPRPGTGPRP	0.596
RRIRERPPRLPRPRPRPWSTPRP	-0.237
RRIRPRPPRLPRPRPRPEQQPRP	-0.0146
RRIRFRPPRLPRPRPRPINYPRP	-0.0562
RRIRTRPPRLPRPRPRPMVTPRP	0.06
RRIRNRPPRLPRPRPRPHLTPRP	-0.0934
RRIRCRPPRLPRPRPRPSIPPRP	-0.969
RRIRSRPPRLPRPRPRPKLDPRP	-0.037
RRIRRRPPRLPRPRPRPGFNPRP	0.0515
RRIRHRPPRLPRPRPRPKRSPRP	0.0325
RRIRGRPPRLPRPRPRPPESPRP	0.873
RRIRKRPPRLPRPRPRPWWKPRP	-0.103
RRIRARPPRLPRPRPRPMGAPRP	0.572
RRIRGRPPRLPRPRPRPVHHPRP	-0.0799
RRIRERPPRLPRPRPRPMQSPRP	0.0874
RRIRIRPPRLPRPRPRPDCMPRP	-0.106
RRIRPRPPRLPRPRPRPRINPRP	-0.16
RRIRLRPPRLPRPRPRPWMKPRP	-0.249

Sequence	shrunken log2 fold change
RRIRHRPPRLPRPRPRPETKPRP	-0.0652
RRIRNRPPRLPRPRPRPWQPPRP	0.104
RRIRGRPPRLPRPRPRPDNSPRP	0.0661
RRIRHRPPRLPRPRPRPMHHPRP	-0.154
RRIRARPPRLPRPRPRPKNNPRP	-0.0541
RRIRQRPPRLPRPRPRPVKGPRP	-0.0475
RRIRKRPPRLPRPRPRPMRHPRP	0.0303
RRIRNRPPRLPRPRPRPGSMPRP	-0.225
RRIRARPPRLPRPRPRPGTTPRP	0.143
RRIRMRPPRLPRPRPRPEDHPRP	1.29
RRIRARPPRLPRPRPRPAFRPRP	0.355
RRIRMRPPRLPRPRPRPGPYPRP	-0.149
RRIRLRPPRLPRPRPRPQGNPRP	-0.0463
RRIRMRPPRLPRPRPRPFYCPRP	-0.118
RRIRHRPPRLPRPRPRPLVDPRP	-0.219
RRIRWRPPRLPRPRPRPQNSPRP	0.0838
RRIRMRPPRLPRPRPRPERMPRP	1.35
RRIRCRPPRLPRPRPRPFKNPRP	-0.967
RRIRVRPPRLPRPRPRPTHWPRP	0.509
RRIRIRPPRLPRPRPRPFQKPRP	-0.0135
RRIRPRPPRLPRPRPRPREFPRP	0.485
RRIRIRPPRLPRPRPRPSWSPRP	-0.458
RRIRRRPPRLPRPRPRPPHVPRP	0.915
RRIRPRPPRLPRPRPRPYRQPRP	-0.0384
RRIRIRPPRLPRPRPRPIMLPRP	0.112
